According to article PMC9668914, “Understanding VPAC receptor family peptide binding and selectivity” (Nature Communications, 2022):

Molecular target: PACAP type 1 receptor (PAC1R), PAC1null splice variant, FLAG and His tagged (UniProt P41586)
Sequence (P41586 21-468, change not shown): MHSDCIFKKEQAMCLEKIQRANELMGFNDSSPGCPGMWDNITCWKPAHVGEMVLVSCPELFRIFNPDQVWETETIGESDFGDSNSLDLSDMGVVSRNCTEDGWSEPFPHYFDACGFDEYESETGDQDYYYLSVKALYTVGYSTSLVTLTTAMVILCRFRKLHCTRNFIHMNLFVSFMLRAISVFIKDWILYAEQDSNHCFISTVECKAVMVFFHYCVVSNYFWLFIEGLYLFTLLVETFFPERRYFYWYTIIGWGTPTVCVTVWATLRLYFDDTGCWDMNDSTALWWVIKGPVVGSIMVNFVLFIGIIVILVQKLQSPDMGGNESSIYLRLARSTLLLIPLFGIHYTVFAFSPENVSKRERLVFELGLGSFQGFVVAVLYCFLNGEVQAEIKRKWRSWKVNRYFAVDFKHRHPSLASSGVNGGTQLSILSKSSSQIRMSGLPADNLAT

Substance	cAMP potency in COS-7 cells transfected with PAC1R, fold change relative to VIP [fold]	cAMP potency in COS-7 cells transfected with PAC1R, fold change relative to PACAP27 [fold]
Gly4 VIP (peptide)	3	–
Ala4 PACAP27 (peptide)	–	5
